According to PMC13107553:

Target: Bicarbonate Transporter Related protein-1 (BTR1), human (human) (UniProt Q8NBS3)
Assay: cryo-EM structure; BTR1 in LMNG/CHS micelle buffer; 140 mmol/L KCl, pH 7.5, 3.25 Å; further structures in 11 buffer conditions (KCl, NaCl, NH4Cl, NH4Cl + NaCl, boric acid; varying pH), 13 states, inward- and outward-facing

In the case of “Bicarbonate Transporter Related protein-1 (BTR1), human (from UniProt Q8NBS3 1-875) (natural protein)”, the stoichiometry N was 2.
